Results as given in US20260265381A1.

Experiments:
[1] = molecular target: human HLA-G expressed on cells (JEG3 cells, natural; SKOV3 cells transfected with recombinant HLA-G) (human) (UniProt P17693); experiment: flow cytometry on JEG3 cells (natural HLA-G); isotype control; detection with goat anti-human IgG (H+L) Alexa 488
[2] = molecular target: human HLA-G expressed on cells (JEG3 cells, natural; SKOV3 cells transfected with recombinant HLA-G) (human) (UniProt P17693); experiment: flow cytometry on SKOV3 HLA-G cells (SKOV3 transfected with HLA-G); isotype control; detection with goat anti-human IgG (H+L) Alexa 488

MFI [1]: 57
MFI [2]: 78
Substance: Isotype (antibody)
